Test results reported in the supplement of paper PMC9732359.
± gives the uncertainty stated by the source.

Assay: protein stability index of a GFP-peptide fusion (yeast GPS) (PSI 1-4); higher = more stable; sorted into four equal gates, so the index is relative within each strain
Details: ubr1∆
In short: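 Tiled 17-residue peptides from yeast proteins were fused downstream of GFP on a plasmid that also expresses Cherry, and the pooled library was carried in yeast. Mid-log cultures grown in leucine-free medium were sorted into four equal gates by GFP/Cherry fluorescence ratio. Plasmids from each gate were PCR-amplified and Illumina-sequenced, and reads were assigned to strains by barcodes. Each peptide's protein stability index is the sum, over gates, of the gate's read frequency multiplied by its gate number.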

Row | Sequence | protein stability index
1 | EIILDFLQDKVQIKDVN [CSI1] | 3.17 ± 0.051
2 | EIKGASETPLQKTVNLK [RPN4] | 3.14 ± 0.056
3 | EIKKWTAVAFWSWDIAV [HRT1] | 1.36 ± 0.044
4 | EIKNWISDIPYVISLSY [YMR129W/POM152] | 1.27 ± 0.27
5 | EILEHICYDVNDWQMLE [RPB2] | 2.98 ± 0.081
6 | EILGTAQSVGCRVDFKN [RPL12A] | 2.94 ± 0.055
7 | EILNIFKHISVKDFTSL [RPO21] | 1.85 ± 0.046
8 | EILNLSTQELQTRAKLL [RPT5] | 3.08 ± 0.085
9 | EILTSVDVLGTHSQTGT [SIR4] | 3.07 ± 0.037
10 | EINTALNTLLVTSADSN [SWI1] | 1.74 ± 0.065
11 | EINWRHASFLCSFITQD [FAS1] | 2.14 ± 0.15
12 | EIPETGEYSVKLLKGAT [FAS2] | 3.35 ± 0.078
13 | EIPSEDQNEFLLERTRE [FAS2] | 3.22 ± 0.079
14 | EISSQIEILVKDNECSS [RRI2] | 1.16 ± 0.069
15 | EITHPPSTTDDENGDKN [SWI3] | 3.31 ± 0.061
16 | EIYYDPDPRSTVIPEDE [RPO21] | 3.06 ± 0.098
17 | EKEEEAKEESDDDMGFG [RPP2B] | 3.43 ± 0.07
18 | EKERLESLTKEISAAHN [SMC3] | 3.42 ± 0.19
19 | EKFPNDVKLLNPIDIKR [RPP1] | 3.01 ± 0.039
20 | EKGPQVCAKLFGNIQKV [RPO21] | 2.09 ± 0.06
21 | EKKPASKAPAEKKPAAK [HTB1] | 3.11 ± 0.054
22 | EKLSSEIENLDKELRKT [YIL149C/MLP2] | 3 ± 0.11
23 | EKLTMVFQDNVYKIYNH [SIN4] | 1.81 ± 0.037
24 | EKPAVKSYASLLAQLNG [RPT3] | 2.76 ± 0.057
25 | EKPLVVPVKLEEIKTVD [RRP6] | 2.38 ± 0.068

Row | Sequence | protein stability index
26 | EKRWNDELELEDAIHIA [PRE8] | 3.23 ± 0.2
27 | EKSAYKFFHNGMIYNKL [FAS2] | 2.83 ± 0.064
28 | EKSKALESEIASSSAKL [SMC2] | 2.97 ± 0.075
29 | EKSQEVEYVDPTVNRVP [RPN7] | 3.74 ± 0.27
30 | EKVRPTPGEVASKAIVQ [MCD1] | 2.84 ± 0.25
31 | EKVSSVLSALEGKSVDE [RPP2A] | 1.87 ± 0.038
32 | ELAVENPLAKTMADAVR [SEC65] | 1.77 ± 0.026
33 | ELCKKNESKIKELNEKI [RPN7] | 2.47 ± 0.13
34 | ELEHLTKKSKLESTKAE [DSN1] | 3.13 ± 0.063
35 | ELEKKYHGNECEINYYE [SRB8] | 3.17 ± 0.066
36 | ELIIDKVTCSSNSSSSP [MED1] | 2.72 ± 0.048
37 | ELIVSEEIPINSSEQES [SIR3] | 2.18 ± 0.037
38 | ELKKKRKIKRLEKFLQG [SRP72] | 3.25 ± 0.049
39 | ELQKIWQIEEAGNSQIT [SRB5] | 3.05 ± 0.066
40 | ELQKIYDRHQSSSKQQS [SMC4] | 3.57 ± 0.051
41 | ELRSLSKKDFKIIDNPK [YMR129W/POM152] | 2.93 ± 0.07
42 | ELSKEEKERLESLTKEI [SMC3] | 3.17 ± 0.077
43 | ELSTDIILKTRQINKLI [SRB7] | 1.2 ± 0.13
44 | ELTKEEAMYKLQLASLQ [SMC3] | 2.64 ± 0.053
45 | ELVIRLEKDAADCQAEL [YIL149C/MLP2] | 3.07 ± 0.22
46 | ELVKSYSWLLFEASCME [YJR042W/NUP85] | 2.41 ± 0.19
47 | EMERIVKNLTKYLSDIM [SRP68] | 2.06 ± 0.074
48 | ENDVKPISIEAPQFYRY [SWI3] | 1.95 ± 0.035
49 | ENGERKLYDAKRYTSEG [YMR129W/POM152] | 3.29 ± 0.085
50 | ENIIIVGGTTSISGFKE [ARP9] | 2.88 ± 0.054

Row | Sequence | protein stability index
51 | ENKVMLPRCSKEEFRLM [RRI2] | 1.7 ± 0.048
52 | ENTPEPDLPALEASYSK [SMC4] | 2.99 ± 0.12
53 | ENVLAIGIAGAHRVRDL [SKI6] | 1.74 ± 0.052
54 | ENVQIGEDFMEVDYEDK [SRB4] | 2.2 ± 0.084
55 | EPFTILGAVAGLIPYPH [RET1] | 1.83 ± 0.043
56 | EPKLFRMRIFASNEVIA [RPL20A] | 2.28 ± 0.036
57 | EQERKELEKYNELERNR [SMC3] | 3.24 ± 0.091
58 | EQFLETDSDFAKYHAKL [SRP68] | 2.77 ± 0.089
59 | EQFPFYLHDNASKVLLK [IRR1] | 2.41 ± 0.052
60 | EQSKEVGDVVGGALDNP [BRN1] | 3.38 ± 0.058
61 | EQVRKMYQEWEDETVKV [NSL1] | 3.58 ± 0.077
62 | EQYIQELDKREDMIDQV [SMC3] | 3.29 ± 0.15
63 | EQYTKKINSWDQVLVKG [YJL041W/NSP1] | 1.48 ± 0.087
64 | ERAARVVKGRVEKTLLS [RPO31] | 3.5 ± 0.1
65 | EREIMNDHSKSANPKKT [SWI3] | 3.31 ± 0.065
66 | ERELISNIEQTESLRVE [YIL149C/MLP2] | 3.37 ± 0.07
67 | EREQCRAGGAAASLIMP [PRE7] | 2.89 ± 0.1
68 | ERIINVGVIGPLHSGKT [SNU114] | 2.94 ± 0.09
69 | ERKEREDFQKRQQKLLE [SWI1] | 3.2 ± 0.048
70 | ERKSKTYVITKNGKIYL [RET1] | 2.47 ± 0.035
71 | ERQIFLEACIVRIMKAK [CDC53] | 1.61 ± 0.037
72 | ERRLQTQVYKLGLAKSV [RPS9A] | 1.23 ± 0.064
73 | ERSAGNIVQVFKKAAPS [RPB2] | 2.91 ± 0.27
